From patent US20080025990A1 (Eli Lilly, published 2008)
Where “and” joins values, the source holds several entries; their conditions need not be identical. Equal values may be shown once.

Key:
[1] = target: recombinant extracellular portion of human IGF-IR (soluble IGF-IR) (human) (UniProt P08069); experiment: human IGF-IR ELISA, full IgG; column head 'Binding (ED50)', concentration for 50% binding relative to saturation
[2] = target: T1, native human IGF-IR on human tumor cells (human, UniProt P08069 31-1367); experiment: inhibition of 125I-IGF-I binding to T47D (breast) cells
T1 construct: whole, on cells; also called endogenous cellular IGF-IR; solubilized IGF-IR (from MCF7 lysate)

[3] = target: T1, native human IGF-IR on human tumor cells; experiment: inhibition of 125I-IGF-I binding to MCF7 (breast) cells
Protocol: (§1) The anti-IGF-IR antibodies were then tested for blocking of radiolabeled ligand to native IGF-IR on human tumor cells. […] MCF7 human breast cancer cells were seeded into 24 well dishes, and cultured overnight. Sub-confluent monolayers were washed 2-3 times in binding buffer (Iscove's Medium/0.1% BSA) and antibody added in binding buffer. […] The wells were then washed three times with ice-cold PBS/0.1% BSA. Monolayers were then lysed with 200 μl 0.5N NaOH and counted in a gamma counter.

[4] = target: recombinant extracellular portion of human IGF-IR (soluble IGF-IR) (human) (UniProt P08069); experiment: inhibition of 125I-IGF-I binding to immobilized IGF-IR, A12 against 2F8
[5] = target: T1, native human IGF-IR on human tumor cells; experiment: inhibition of 125I-IGF-I binding to HPAC (pancreatic) cells
[6] = target: T1, native human IGF-IR on human tumor cells; experiment: inhibition of 125I-IGF-I binding to BXPC3 (pancreatic) cells
[7] = target: T1, native human IGF-IR on human tumor cells; experiment: inhibition of 125I-IGF-I binding to OV90 (ovarian) cells
[8] = target: T1, native human IGF-IR on human tumor cells; experiment: inhibition of 125I-IGF-I binding to SK-ES1 (Ewing sarcoma) cells
[9] = target: T1, native human IGF-IR on human tumor cells; experiment: inhibition of 125I-IGF-I binding to HT-29 (colorectal) cells
[10] = target: T1, native human IGF-IR on human tumor cells; experiment: inhibition of 125I-IGF-I binding to 8226 (myeloma) cells
[11] = target: T1, native human IGF-IR on human tumor cells; experiment: inhibition of 125I-IGF-I binding to MCF7 cells (the 3 nM is written at Table 4)
Protocol: as §1

[12] = target: recombinant extracellular portion of human IGF-IR (soluble IGF-IR) (human) (UniProt P08069); experiment: comparison of affinities (BIAcore, Table 3)
[13] = target: T1, native human IGF-IR on human tumor cells; experiment: cell-based or functional assay
[14] = target: recombinant extracellular portion of human IGF-IR (soluble IGF-IR) (human) (UniProt P08069); experiment: inhibition of 125I-IGF-I binding to immobilized human IGF-IR, full IgG; 'Blocking (EC50)'
[15] = target: T1, native human IGF-IR on human tumor cells; experiment: cell-based or functional assay; remark: listed apart in the source
[16] = target: T1, native human IGF-IR on human tumor cells; experiment: cell-based or functional assay; remark: listed apart in the source
[17] = target: recombinant extracellular portion of human IGF-IR (soluble IGF-IR) (human) (UniProt P08069); experiment: inhibition of 125I-IGF-I binding to immobilized human IGF-IR, full IgG; 'Blocking (EC50)'; upper end of the printed range 3-6 nM
[18] = target: recombinant extracellular portion of human IGF-IR (soluble IGF-IR) (human) (UniProt P08069); experiment: BIAcore binding kinetic analysis
[19] = target: recombinant extracellular portion of human IGF-IR (soluble IGF-IR) (human) (UniProt P08069); experiment: BIAcore 3000, soluble IGF-IR immobilized on the chip, full IgG
[20] = target: T1, native human IGF-IR on human tumor cells; experiment: inhibition of 125I-IGF-I binding to MCF7 cells
Protocol: as §1

[21] = target: recombinant extracellular portion of human IGF-IR (soluble IGF-IR) (human) (UniProt P08069); experiment: inhibition of 125I-IGF-I binding to immobilized human IGF-IR, full IgG; 'Blocking (EC50)'; lower end of the printed range 3-6 nM

B1: antibody A12, full length human IgG1 with lambda light chain (antibody, V domains shown)
VH: EVQLVQSGAEVKKPGSSVKVSCKASGGTFSSYAISWVRQAPGQGLEWMGGIIPIFGTANYAQKFQGRVTITADKSTSTAYMELSSLRSEDTAVYYCARAPLRFLEWSTQDHYYYYYMDVWGKGTTVTVSS
VL: SSELTQDPAVSVALGQTVRITCQGDSLRSYYATWYQQKPGQAPILVIYGENKRPSGIPDRFSGSSSGNTASLTITGAQAEDEADYYCKSRDGSGQHLVFGGGTKLTVLG
notes: also called IMC-A12; mAb A12
[1]
  EC50: 0.3 nM
[2]
  IC50: 6 nM
[3]
  IC50: 3 nM
[4]
  fold increase in blocking activity relative to 2F8: > 3 fold
[5]
  IC50: 10 nM
[6]
  IC50: 20 nM
[7]
  IC50: 6 nM
[8]
  IC50: 2 nM
[9]
  IC50: 10 nM
[10]
  IC50: 20 nM
[11]
  IC50: 0.45 µg/mL
[12]
  fold higher affinity relative to 2F8: 10 fold
[13]
  reduction in IGF-IR surface staining of MCF7 cells after 4 h with 50 nM A12 at 37 C (FACS, mean fluorescence intensity ratio): 90%
[14]
  IC50: 0.6 to 1 nM
[15]
  surface IGF-IR staining of MCF7 cells (mean fluorescence intensity ratio) after 4 hours with A12; untreated cells 35.7, control 1: 3.3
[16]
  IC50 of inhibition of IGF-I-stimulated [3H]thymidine incorporation (mitogenesis), MCF7 breast: 6 nM
  IC50 of inhibition of mitogenesis, 8226 myeloma: 5 nM
  IC50 of inhibition of mitogenesis, BT474 breast: 5 nM
  IC50 of inhibition of mitogenesis, BXPC3 pancreatic: 2 nM
  IC50 of inhibition of mitogenesis, HT-29 colorectal: 6 nM
  IC50 of inhibition of mitogenesis, SK-ES1 Ewing sarcoma: 10 nM
  IC50 of inhibition of mitogenesis, T47D breast: 7 nM

B2: antibody 2F8, full length human IgG1 with lambda light chain (antibody, V domains shown)
VH: B1 VH
VL: SSELTQDPAVSVALGQTVRITCQGDSLRSYYASWYQQKPGQAPVLVIYGKNNRPSGIPDRFSGSSSGNTASLTITGAQAEDEADYYCNSRDNSDNRLIFGGGTKLTVLS
notes: Tested as full IgG1 (human gamma 1 constant region) with full-length lambda light chain; also called IMC-2F8; 2F8 IgG
[1]
  EC50: 2 nM
[17]
  IC50: < 6 nM
[18]
  Kd: 0.5 to 1 nM
[19]
  Kd: 0.65 nM
[20]
  IC50: 30 nM and 4.5 µg/mL
[21]
  IC50: > 3 nM
